“And” between values parts separate entries of the source, which are not always exact repeats. Equal entries are not always repeated.
Columns and labels:
[1] = target: Hexameric Aβ from CHO cells transfected with C99 carrying the Dutch (E22Q) FAD mutation (human); experiment: SDS-PAGE and western blot of oligomer bands; CHO cell lysates (4% SDS lysis buffer, heated 10 min at 70 °C with 50 mM DTT) and lyophilised culture media 48 h after transfection; 4-12% NuPAGE bis-tris gels; detected with anti-Aβ W0-2
[2] = target: Hexameric Aβ from CHO cells transfected with C99 carrying the Flemish (A21G) FAD mutation (human); experiment: as above
[3] = target: Hexameric Aβ from CHO cells transfected with C99 carrying the Arctic (E22G) FAD mutation (human); experiment: as above
[4] = target: vC42, assembly-impaired variant of Aβ42 (F19S, G37D) from transfected CHO cells (human); experiment: as above
[5] = target: Hexameric Aβ from CHO cells transfected with C99 carrying the Italian (E22K) FAD mutation (human); experiment: as above
[6] = target: C99-derived hexameric Aβ42 (cell-derived amyloid-β 42 from CHO cells transfected with C99) (human) (UniProt P05067); experiment: GELFrEE fractionation by size and western blot; Aβ immunoprecipitated with W0-2 from media, boiled at 95 °C with DTT, separated on the GELFrEE 8100 system; fractions blotted with W0-2; hexamer in fraction 5
[7] = target: C99-derived hexameric Aβ42 (cell-derived amyloid-β 42 from CHO cells transfected with C99) (human) (UniProt P05067); experiment: SDS-PAGE and western blot of oligomer bands; CHO cell lysates (4% SDS lysis buffer, heated 10 min at 70 °C with 50 mM DTT) and lyophilised culture media 48 h after transfection; 4-12% NuPAGE bis-tris gels; detected with anti-Aβ W0-2
[8] = target: Hexameric Aβ from CHO cells transfected with C99 carrying the Iowa (D23N) FAD mutation (human); experiment: as above
[9] = target: Aβ in the dimer and trimer bands of the culture media of C99 transfected CHO cells (isoform not determined) (human); experiment: as above

Substance “Hexameric Aβ from CHO cells transfected with C99 carrying the Dutch (E22Q) FAD mutation (peptide)” has a stoichiometry N [1] of 6.

“Hexameric Aβ from CHO cells transfected with C99 carrying the Flemish (A21G) FAD mutation (peptide)” gave a stoichiometry N [2] of 6.

“Hexameric Aβ from CHO cells transfected with C99 carrying the Arctic (E22G) FAD mutation (peptide)” gave a stoichiometry N [3] of 6.

For “vC42, assembly-impaired variant of Aβ42 (F19S, G37D) from transfected CHO cells (peptide)”, the stoichiometry N [4] was 2 and 3.

In the case of “Hexameric Aβ from CHO cells transfected with C99 carrying the Italian (E22K) FAD mutation (peptide)”, the stoichiometry N [5] is reported as 6.

Work on “C99-derived hexameric Aβ42 (cell-derived amyloid-β 42 from CHO cells transfected with C99) (from UniProt P05067 672-770) (peptide)” yielded a stoichiometry N [6] of 6 and a stoichiometry N [7] of 6.

“Hexameric Aβ from CHO cells transfected with C99 carrying the Iowa (D23N) FAD mutation (peptide)” gave a stoichiometry N [8] of 6.

In the case of “Aβ in the dimer and trimer bands of the culture media of C99 transfected CHO cells (isoform not determined) (peptide)”, the stoichiometry N [9] is reported as 2 and 3.

— paper PMC8172837
